Data: US20250352615A1, “COMPOSITIONS AND METHODS FOR THE MODULATION OF PIEZO1 AND TRPV4” (Duke University, priority 2021, published 2025)

Key:
human PSCs = experiment: Human PSC activation and fibrogenic response (fat droplets, cell shape, ECM mRNA and immunostaining); type: cell-based; conditions: GsMTx4 5 μM, 12 or 25 dyne/cm^2 for 10 minutes
Procedure: (§1) Mouse and human PSCs were isolated using collagenase digestion. Modified Krebs Henseleit Buffer (KHB) solution (100 mL) was prepared as previously described by Romac et al., Nat. Commun. 9(1):1715 (2018). Pancreatic tissue was digested with 2 mg of collagenase NB 8 (SERVA, catalog 17456) dissolved in 10 mL of modified KHB solution containing 1 mg soybean trypsin inhibitor (SBTI 1-S; Millipore Sigma, catalog T9003) and 20 mg BSA (Thermo Fisher Scientific; BP1600-100). Digestion solution (5 mL) was used to inflate the pancreas. Pancreas with 5 mL of digestion solution was incubated in a shaking water bath for 10 minutes at 37° C. The solution was then discarded. The pancreas tissue was cut into small pieces and digested with fresh 5 mL digestion buffer. Tissue was incubated in a shaking water bath for 40 minutes at 37° C. The cells were then separated from tissue by pipetting up-down with a 10 mL pipette and passed sequentially through a 70 μm and a 40 μm cell strainer. The filtrate was centrifuged at 150×g for 3 minutes at room temperature. The cells were washed with 10 mL Leibovitz's media (Thermo Fisher Scientific, catalog 11415-064), passed through a 20 μm filter, and centrifuged at 80×g for 3 minutes at room temperature. The supernate was removed, and isolated stellate cells were plated on a thin-layered Matrigel-coated glass bottom culture plate (MatTek, P35G-0-14-C). Before plating the cells, Matrigel solution (Corning, catalog 354234) at a ratio of 1.5:100 DMEM/F12 (Thermo Fisher Scientific, catalog 11330-032) was poured onto the culture plate and incubated for 2 hr at 37° C. to form a thin layer of Matrigel coating. Matrigel mixture was removed, and the plate was washed with PBS before cells were plated. Cell culture media, DMEM/F12 with 5% FBS was used for mouse stellate cells. Fresh, human pancreatic tissue was digested with collagenase as described above with modifications. Collagenase (2.5 mg) in 10 mL of modified KHB solution was used for digestion. The digested tissues were filtered through a 100 μm cell strainer. The cells were cultured with DMEM/F12 with 10% FBS in a Matrigel-coated plate. After 24 hr, the cell media was replaced with fresh media to remove unattached and dead cells. After 2 days, cells were immunostained for GFAP and used for experiments. Perinuclear fat droplets were stained with BODIPY 493/503 (4,4-Difluoro-1,3,5,7,8-Pentamethyl-4-Bora-3a,4a-Diaza-s-Indacene; Invitrogen, catalog D3922) to confirm stellate cell quiescence. The cell viability following Yoda1 treatment was analyzed using the Live/Dead cell imaging kit (Thermo Fisher Scientific, catalog R37601). RNAs were isolated using the RiboPure Kit (Invitrogen, catalog AM1924) according to manufacturer's instructions.
(§2) Fluid shear stress and mechanical pushing applied to stellate cells were achieved as previously described by Wang et al., J. Clin. Invest. 126(12): 4527-4536 (2016). Parallel-plate fluid flow chambers (μ-Slide I 0.4 Luer, or μ-Slide I 0.2 Luer from Ibidi) were used for fluid shear stress experiments. The fluid shear stress (T) was calculated using the formula: τ=η×[…] φ for μ-Slide I 0.4 Luer and τ=η×330.4 φ for μ-Slide I 0.2 Luer, where r represents viscosity of the medium and φ represents flow rate (according to the manufacturer's instructions, Ibidi). Mechanical pushing was achieved by applying a blunt borosilicate glass pipette once to the cell membrane with a deflection of 2-3 μm for 1 second using a micromanipulator (World Precision Instruments).
Mouse and human PSCs were washed with PBS (pH 7.4) and fixed with 4% paraformaldehyde for 10 minutes at room temperature. The fixed cells were treated with 0.1% Triton X-100. […]

Piezo1 [1] = target: T1, Piezo1 (Homo sapiens, UniProt Q92508); experiment: Calcium imaging of Piezo1-mediated [Ca2+]i in human PSCs; type: cell-based; conditions: GsMTx4 5 μM, human PSCs
T1 construct: Fresh, human pancreatic tissue was digested with collagenase as described above with modifications; endogenous in cells; host or cells: primary human pancreatic stellate cells from fresh human pancreatic tissue
T1 sequence (Q92508 whole entry): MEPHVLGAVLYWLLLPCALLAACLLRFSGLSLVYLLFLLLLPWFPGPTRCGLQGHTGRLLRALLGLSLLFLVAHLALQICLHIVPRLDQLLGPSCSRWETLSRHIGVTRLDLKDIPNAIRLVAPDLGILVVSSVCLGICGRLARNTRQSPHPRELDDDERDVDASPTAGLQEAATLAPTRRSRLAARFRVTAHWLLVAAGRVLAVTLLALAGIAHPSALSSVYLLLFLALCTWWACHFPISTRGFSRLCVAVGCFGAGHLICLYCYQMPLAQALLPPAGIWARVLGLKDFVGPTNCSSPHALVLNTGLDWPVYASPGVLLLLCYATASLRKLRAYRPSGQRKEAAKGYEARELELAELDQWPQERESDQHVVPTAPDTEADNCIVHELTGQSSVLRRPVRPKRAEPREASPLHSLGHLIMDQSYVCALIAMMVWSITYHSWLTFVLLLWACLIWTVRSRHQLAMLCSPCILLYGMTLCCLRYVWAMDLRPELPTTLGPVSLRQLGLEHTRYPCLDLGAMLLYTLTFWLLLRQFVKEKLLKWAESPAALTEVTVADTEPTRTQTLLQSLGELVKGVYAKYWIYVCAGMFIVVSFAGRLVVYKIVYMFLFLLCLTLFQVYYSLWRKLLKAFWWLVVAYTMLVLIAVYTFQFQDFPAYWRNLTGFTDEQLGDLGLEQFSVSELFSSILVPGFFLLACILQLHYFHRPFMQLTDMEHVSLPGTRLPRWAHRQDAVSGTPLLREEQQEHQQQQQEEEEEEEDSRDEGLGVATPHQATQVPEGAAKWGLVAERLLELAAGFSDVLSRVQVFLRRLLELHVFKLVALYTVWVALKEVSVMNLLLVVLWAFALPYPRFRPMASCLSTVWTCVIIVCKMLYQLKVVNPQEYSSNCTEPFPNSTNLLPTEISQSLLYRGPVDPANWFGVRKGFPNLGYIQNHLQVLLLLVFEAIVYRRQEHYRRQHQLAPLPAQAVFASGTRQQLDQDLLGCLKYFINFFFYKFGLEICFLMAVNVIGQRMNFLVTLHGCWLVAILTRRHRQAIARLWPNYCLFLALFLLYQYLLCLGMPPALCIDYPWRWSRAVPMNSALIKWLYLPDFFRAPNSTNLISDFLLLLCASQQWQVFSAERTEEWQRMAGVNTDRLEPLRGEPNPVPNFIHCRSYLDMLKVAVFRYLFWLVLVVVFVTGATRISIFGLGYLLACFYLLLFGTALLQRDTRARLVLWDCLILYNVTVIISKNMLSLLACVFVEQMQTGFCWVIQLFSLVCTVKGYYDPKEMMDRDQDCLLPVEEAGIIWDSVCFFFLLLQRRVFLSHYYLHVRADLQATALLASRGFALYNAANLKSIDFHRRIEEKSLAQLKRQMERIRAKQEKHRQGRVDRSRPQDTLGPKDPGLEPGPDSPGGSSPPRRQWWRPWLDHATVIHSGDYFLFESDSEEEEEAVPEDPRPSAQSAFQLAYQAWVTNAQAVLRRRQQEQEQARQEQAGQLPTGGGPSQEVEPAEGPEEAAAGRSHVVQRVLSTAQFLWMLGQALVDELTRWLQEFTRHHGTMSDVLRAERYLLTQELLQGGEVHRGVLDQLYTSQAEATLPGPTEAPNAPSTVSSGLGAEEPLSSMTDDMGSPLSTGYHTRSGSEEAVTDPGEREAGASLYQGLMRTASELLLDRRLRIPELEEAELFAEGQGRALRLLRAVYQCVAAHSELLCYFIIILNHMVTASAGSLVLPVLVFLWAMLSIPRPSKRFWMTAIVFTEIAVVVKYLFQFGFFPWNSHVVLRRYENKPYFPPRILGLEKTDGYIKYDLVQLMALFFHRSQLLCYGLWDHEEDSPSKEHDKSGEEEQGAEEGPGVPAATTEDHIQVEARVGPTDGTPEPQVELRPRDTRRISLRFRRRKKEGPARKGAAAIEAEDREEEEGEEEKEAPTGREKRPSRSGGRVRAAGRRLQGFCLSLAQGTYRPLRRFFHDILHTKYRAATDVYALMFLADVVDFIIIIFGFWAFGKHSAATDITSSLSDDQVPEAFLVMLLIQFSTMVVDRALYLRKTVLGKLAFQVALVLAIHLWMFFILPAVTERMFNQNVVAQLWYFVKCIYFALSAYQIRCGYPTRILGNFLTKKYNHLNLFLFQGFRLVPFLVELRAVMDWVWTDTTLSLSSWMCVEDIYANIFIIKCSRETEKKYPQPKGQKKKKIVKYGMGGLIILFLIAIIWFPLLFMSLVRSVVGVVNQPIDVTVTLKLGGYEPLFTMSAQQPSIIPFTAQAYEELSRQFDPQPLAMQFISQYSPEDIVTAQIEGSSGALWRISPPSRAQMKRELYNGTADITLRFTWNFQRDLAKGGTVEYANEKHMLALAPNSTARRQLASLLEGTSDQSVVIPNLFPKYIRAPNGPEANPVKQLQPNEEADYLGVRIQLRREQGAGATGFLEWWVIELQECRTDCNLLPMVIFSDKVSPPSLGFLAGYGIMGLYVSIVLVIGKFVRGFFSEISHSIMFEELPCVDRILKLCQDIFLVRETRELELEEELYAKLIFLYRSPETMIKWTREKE
Procedure: Mouse and human PSCs were isolated using collagenase digestion. Modified Krebs Henseleit Buffer (KHB) solution (100 mL) was prepared as previously described by Romac et al., Nat. Commun. 9(1):1715 (2018). Pancreatic tissue was digested with 2 mg of collagenase NB 8 (SERVA, catalog 17456) dissolved in 10 mL of modified KHB solution containing 1 mg soybean trypsin inhibitor (SBTI 1-S; Millipore Sigma, catalog T9003) and 20 mg BSA (Thermo Fisher Scientific; BP1600-100). Digestion solution (5 mL) was used to inflate the pancreas. Pancreas with 5 mL of digestion solution was incubated in a shaking water bath for 10 minutes at 37° C. The solution was then discarded. The pancreas tissue was cut into small pieces and digested with fresh 5 mL digestion buffer. Tissue was incubated in a shaking water bath for 40 minutes at 37° C. The cells were then separated from tissue by pipetting up-down with a 10 mL pipette and passed sequentially through a 70 μm and a 40 μm cell strainer. The filtrate was centrifuged at 150×g for 3 minutes at room temperature. The cells were washed with 10 mL Leibovitz's media (Thermo Fisher Scientific, catalog 11415-064), passed through a 20 μm filter, and centrifuged at 80×g for 3 minutes at room temperature. The supernate was removed, and isolated stellate cells were plated on a thin-layered Matrigel-coated glass bottom culture plate (MatTek, P35G-0-14-C). […] The cell viability following Yoda1 treatment was analyzed using the Live/Dead cell imaging kit (Thermo Fisher Scientific, catalog R37601). […]
Fluid shear stress and mechanical pushing applied to stellate cells were achieved as previously described by Wang et al., J. Clin. Invest. […] The fluid shear stress (T) was calculated using the formula: τ=η×[…] φ for μ-Slide I 0.4 Luer and τ=η×330.4 φ for μ-Slide I 0.2 Luer, where r represents viscosity of the medium and φ represents flow rate (according to the manufacturer's instructions, Ibidi). […]

Piezo1 [2] = target: T2, Piezo1 (Mus musculus, UniProt E2JF22); experiment: Calcium imaging of Piezo1-mediated [Ca2+]i in mouse PSCs; type: cell-based; conditions: GsMTx4 5 μM
T2 construct: endogenous in cells; host or cells: freshly isolated mouse pancreatic acini (WT = Piezo1 fl/fl on a C57BL/6J background)
T2 sequence (E2JF22 whole entry): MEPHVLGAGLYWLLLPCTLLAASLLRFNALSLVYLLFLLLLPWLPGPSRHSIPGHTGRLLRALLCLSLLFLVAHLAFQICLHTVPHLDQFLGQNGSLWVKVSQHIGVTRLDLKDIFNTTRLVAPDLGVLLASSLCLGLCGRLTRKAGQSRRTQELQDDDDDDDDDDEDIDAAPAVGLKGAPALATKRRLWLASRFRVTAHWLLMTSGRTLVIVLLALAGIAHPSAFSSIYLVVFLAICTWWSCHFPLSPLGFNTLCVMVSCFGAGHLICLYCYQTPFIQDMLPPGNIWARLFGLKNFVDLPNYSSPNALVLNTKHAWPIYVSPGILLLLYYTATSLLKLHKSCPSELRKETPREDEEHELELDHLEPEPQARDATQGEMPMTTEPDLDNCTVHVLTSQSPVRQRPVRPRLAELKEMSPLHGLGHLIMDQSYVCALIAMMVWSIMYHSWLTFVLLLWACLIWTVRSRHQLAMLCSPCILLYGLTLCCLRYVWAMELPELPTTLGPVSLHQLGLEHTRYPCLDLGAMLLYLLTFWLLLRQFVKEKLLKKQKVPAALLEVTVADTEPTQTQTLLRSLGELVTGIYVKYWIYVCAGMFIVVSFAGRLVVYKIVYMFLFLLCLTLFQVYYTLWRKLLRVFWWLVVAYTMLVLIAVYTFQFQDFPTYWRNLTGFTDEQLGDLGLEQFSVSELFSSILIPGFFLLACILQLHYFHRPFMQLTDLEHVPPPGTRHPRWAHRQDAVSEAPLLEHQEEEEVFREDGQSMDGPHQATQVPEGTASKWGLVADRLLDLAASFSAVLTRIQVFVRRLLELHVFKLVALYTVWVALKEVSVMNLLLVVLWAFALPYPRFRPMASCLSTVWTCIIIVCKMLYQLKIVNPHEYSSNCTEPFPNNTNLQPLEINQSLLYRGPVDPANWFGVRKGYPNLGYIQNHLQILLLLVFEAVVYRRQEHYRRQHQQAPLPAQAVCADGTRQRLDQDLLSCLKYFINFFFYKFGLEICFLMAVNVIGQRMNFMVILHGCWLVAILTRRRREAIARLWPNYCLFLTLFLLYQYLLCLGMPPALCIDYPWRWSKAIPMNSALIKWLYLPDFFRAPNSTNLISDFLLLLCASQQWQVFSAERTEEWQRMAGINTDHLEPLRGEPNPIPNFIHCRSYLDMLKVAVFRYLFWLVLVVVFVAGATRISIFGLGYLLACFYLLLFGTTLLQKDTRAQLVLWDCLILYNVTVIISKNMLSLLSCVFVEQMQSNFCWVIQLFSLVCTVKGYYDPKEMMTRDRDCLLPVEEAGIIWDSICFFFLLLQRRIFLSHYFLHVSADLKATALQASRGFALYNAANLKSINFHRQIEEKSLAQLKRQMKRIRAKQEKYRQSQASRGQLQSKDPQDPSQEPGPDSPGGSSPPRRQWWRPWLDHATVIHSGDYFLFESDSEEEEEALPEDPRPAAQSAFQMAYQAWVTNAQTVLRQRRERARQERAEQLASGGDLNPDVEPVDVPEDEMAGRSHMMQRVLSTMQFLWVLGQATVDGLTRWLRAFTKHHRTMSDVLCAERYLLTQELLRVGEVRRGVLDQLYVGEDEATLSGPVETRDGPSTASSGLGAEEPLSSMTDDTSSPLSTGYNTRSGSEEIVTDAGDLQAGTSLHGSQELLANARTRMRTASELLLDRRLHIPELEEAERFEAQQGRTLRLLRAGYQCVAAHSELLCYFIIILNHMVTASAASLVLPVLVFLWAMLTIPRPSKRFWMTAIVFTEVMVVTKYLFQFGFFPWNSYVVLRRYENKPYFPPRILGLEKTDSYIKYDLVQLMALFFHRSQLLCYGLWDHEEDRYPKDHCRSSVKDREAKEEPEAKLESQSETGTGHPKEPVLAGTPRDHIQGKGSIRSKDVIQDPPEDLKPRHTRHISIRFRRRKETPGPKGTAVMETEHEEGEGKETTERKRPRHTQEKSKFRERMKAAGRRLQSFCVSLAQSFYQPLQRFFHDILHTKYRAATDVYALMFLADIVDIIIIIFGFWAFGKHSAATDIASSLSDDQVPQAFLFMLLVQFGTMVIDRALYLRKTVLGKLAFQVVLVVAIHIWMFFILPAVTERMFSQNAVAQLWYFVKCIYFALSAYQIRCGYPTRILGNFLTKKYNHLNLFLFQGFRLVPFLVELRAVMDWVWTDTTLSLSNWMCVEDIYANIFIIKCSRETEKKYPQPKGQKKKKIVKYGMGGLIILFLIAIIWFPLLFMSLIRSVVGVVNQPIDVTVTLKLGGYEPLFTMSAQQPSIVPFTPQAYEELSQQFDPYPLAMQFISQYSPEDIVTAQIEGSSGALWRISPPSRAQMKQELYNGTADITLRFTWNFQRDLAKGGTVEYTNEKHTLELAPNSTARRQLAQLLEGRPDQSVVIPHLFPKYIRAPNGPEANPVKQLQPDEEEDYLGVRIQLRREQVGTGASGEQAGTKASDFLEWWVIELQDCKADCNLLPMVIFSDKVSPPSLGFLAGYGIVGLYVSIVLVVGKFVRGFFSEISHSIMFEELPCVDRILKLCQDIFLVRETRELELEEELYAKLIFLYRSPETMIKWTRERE
Procedure: as §1, §2
Calcium 6-QF (Molecular Devices) dye was used for live-cell calcium imaging as described by Romac et al., Nat. Commun. 9(1):1715 (2018). Cells were imaged in HBSS buffer with 2 mM Ca^2+. Faintly and highly fluorescent loaded cells were excluded from analysis. […]

Piezo1 [3] = target: T2, Piezo1; experiment: Mechanical pushing-induced [Ca2+]i in pancreatic acini; type: cell-based; conditions: prior treatment with GsMTx4; blunt pipette 5 μm for 1 second
Procedure: A borosilicate glass pipette (Sutter Instrument) was pulled using a pipette puller P-87 (Sutter Instruments) and made blunt with an MF-900 Microforge (Narishige). Acini were pushed once with a 2- to 3-μm tip blunt pipette to 5 μm for 1 second using a micromanipulator (World Precision Instruments).
Calcium imaging in pancreatic acini was performed as previously described. The chemicals used in calcium imaging experiments included the following: Yoda1 (Tocris; 5586), GsMTx4 (Abcam; ab141871), 5′,6′-EET (Santa Cruz Biotechnology; sc-221066), AA (Millipore Sigma; A3611), HC067047 (Tocris; 4100), GSK1016790A (Millipore Sigma; G0798), RN1734 (Tocris; 3746), AACOCF3 (Tocris; 1462), YM26734 (Tocris; 2522), GF109203X (Tocris; 0741), and CCK8 (Sigma-Aldrich).

pancreatic acini [4] = experiment: Trypsinogen activation in pancreatic acini (BZiPAR); type: cell-based, mouse; conditions: GsMTx4 5 μM
Procedure: To visualize Piezo1-induced trypsinogen activation, acini were loaded with active trypsin enzyme substrate BZiPAR (10 μM). Na-HEPES buffer with 2 mM Ca^2+ was used during imaging. A Zeiss Axio observer Z1 with a high-sensitivity EMCCD camera with a ×40/0.75 EC-Plan-NeoFluar DIC objective was used to capture the Z-stack images with stack thickness of 3 μm at an interval of 12 seconds. The BZiPAR fluorescent wavelength Ex/Em was 498/521 nm. BZiPAR was excited at 470-510 nm and emission collected at 495-550 nm. The captured images were analyzed with MetaMorph software (Molecular Devices).

Piezo1 [5] = target: T2, Piezo1; conditions: pancreatic acini; recently reported; cited from earlier work
pancreatic acini [6] = experiment: Mitochondrial depolarization in pancreatic acini (TMRE); type: cell-based, mouse; conditions: GsMTx4 5 μM; Yoda1 50 μM; WT cells
Procedure: Live-cell mitochondrial depolarization was analyzed using the mitochondrial labeling dye, TMRE. Isolated acini were plated on a thin-layered, Matrigel-coated, glass-bottom culture plate with DMEM/F12 and 10% FBS media and placed in a CO2 incubator for 1 hr at 37° C. After 1 hr, the acini were incubated with TMRE (200 nM) in the bath buffer containing 140 mM NaCl, 4.7 mM KCl, 2.0 CaCl2, 1 mM MgCl2, 10 mM HEPES, and 10 mM glucose (pH adjusted to 7.4 with NaOH) for 30 minutes. The TMRE dye was washed and replaced with fresh bath buffer. The images were captured with a Zeiss Axio observer Z1 microscope with MetaMorph software (Molecular Devices) at intervals of 600 ms. TMRE was excited at 540-600 nm and emission collected at 585-675 nm. Carbonyl cyanide 4-(trifluoromethoxy) phenylhydrazone (FCCP), which uncouples the oxidative phosphorylation process and depolarizes mitochondria, was used as a positive control. A maximum of 2 mitochondrial puncta were taken per acinar cell.

## GsMTx4 (GCLEFWWKCNPNDDKCCRPKLKCSKLFKLCNFSF; HELM PEPTIDE1{G.C.L.E.F.W.W.K.C.N.P.N.D.D.K.C.C.R.P.K.L.K.C.S.K.L.F.K.L.C.N.F.S.F.[am]}$PEPTIDE1,PEPTIDE1,16:R3-30:R3|PEPTIDE1,PEPTIDE1,2:R3-17:R3|PEPTIDE1,PEPTIDE1,9:R3-23:R3$$$V2.0; N-terminus assumed; SMILES CC(C)C[C@@H]1NC(=O)[C@@H](NC(=O)CN)CSSC[C@@H]2NC(=O)[C@@H]3CSSC[C@@H](C(=O)N[C@@H](CC(N)=O)C(=O)N[C@@H](Cc4ccccc4)C(=O)N[C@@H](CO)C(=O)N[C@@H](Cc4ccccc4)C(N)=O)NC(=O)[C@H](CC(C)C)NC(=O)[C@H](CCCCN)NC(=O)[C@H](Cc4ccccc4)NC(=O)[C@H](CC(C)C)NC(=O)[C@H](CCCCN)NC(=O)[C@H](CO)NC(=O)[C@H](CSSC[C@H](NC(=O)[C@H](CCCCN)NC(=O)[C@H](Cc4c[nH]c5ccccc45)NC(=O)[C@H](Cc4c[nH]c5ccccc45)NC(=O)[C@H](Cc4ccccc4)NC(=O)[C@H](CCC(=O)O)NC1=O)C(=O)N[C@@H](CC(N)=O)C(=O)N1CCC[C@H]1C(=O)N[C@@H](CC(N)=O)C(=O)N[C@@H](CC(=O)O)C(=O)N[C@@H](CC(=O)O)C(=O)N[C@@H](CCCCN)C(=O)N3)NC(=O)[C@H](CCCCN)NC(=O)[C@H](CC(C)C)NC(=O)[C@H](CCCCN)NC(=O)[C@@H]1CCCN1C(=O)[C@H](CCCNC(=N)N)NC2=O; UniProt Q7YT39 47-80, looked up)
Human PSCs
  effect on shear stress-mediated pathological changes (fat droplet loss, fibronectin, collagen type I): attenuated the shear stress-mediated pathological changes
Piezo1 [1]
  effect on Yoda1 (25 μM)-mediated [Ca2+]i rise: sensitive to GsMTx4 blockade
Piezo1 [1]; 12 dyne/cm^2 for 1 minute
  effect on fluid shear stress-induced sustained [Ca2+]i increase: blocked
Piezo1 [2]; mouse PSCs
  effect on Yoda1-induced calcium rise: blocked the calcium rise produced by Yoda1
Piezo1 [2]; 12 dyne/cm^2 for 1 minute
  effect on shear stress-induced transient [Ca2+]i elevation in TRPV4-null PSCs: blocked the effects of high shear stress (12 dyne/cm^2 for 1 minute) on the transient [Ca^2+]i elevation
Piezo1 [3]
  effect on mechanical pushing-induced transient [Ca2+]i rise: completely blocked
Pancreatic acini [4]
  effect on Yoda1-induced trypsin activation: blocked the Yoda1-induced trypsin activation
Piezo1 [5]
  effect on Yoda1-mediated [Ca2+]i rise: inhibits the Yoda1-mediated [Ca^2+]i rise
Pancreatic acini [6]
  effect on Yoda1-induced mitochondrial depolarization: blocked the Yoda1-induced mitochondrial depolarization
